{"source": "paper PMC10817852", "about": "“Vascular injury activates the ELK1/SND1/SRF pathway to promote vascular smooth muscle cell proliferative phenotype and neointimal hyperplasia”", "binders": {"B1": {"name": "Fos CArG probe (dsDNA)", "DNA 1": "CCATATTAGGCCATATTAGGCCATATTAGGCCATATTAGGCCATATTAGG", "DNA 2": "CCTAATATGGCCTAATATGGCCTAATATGGCCTAATATGGCCTAATATGG"}}, "key": {"SRF (1-266)": {"target": "T1, SRF (1-266) (UniProt P11831 1-266)", "T1 sequence": "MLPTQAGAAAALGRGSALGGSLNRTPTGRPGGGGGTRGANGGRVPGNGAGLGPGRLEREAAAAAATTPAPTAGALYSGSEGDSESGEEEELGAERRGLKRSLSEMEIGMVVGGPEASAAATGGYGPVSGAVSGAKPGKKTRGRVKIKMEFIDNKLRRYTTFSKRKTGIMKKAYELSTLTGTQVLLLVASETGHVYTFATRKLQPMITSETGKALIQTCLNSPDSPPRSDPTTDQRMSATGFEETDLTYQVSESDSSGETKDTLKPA", "test": "EMSA; unlabeled probe (200-fold) diminished binding; Beyotime GS009 chemiluminescent EMSA kit binding buffer (composition, salt and pH not given), 20 fmol biotin probe, 0.1 ug protein, 10 min at room temperature", "details": "protein: recombinant; (GST fusions described); chain copies: 2; label: biotin; blunt"}, "SND1 (1-660)": {"target": "T2, SND1 (1-660) (UniProt Q78PY7 1-660)", "T2 sequence": "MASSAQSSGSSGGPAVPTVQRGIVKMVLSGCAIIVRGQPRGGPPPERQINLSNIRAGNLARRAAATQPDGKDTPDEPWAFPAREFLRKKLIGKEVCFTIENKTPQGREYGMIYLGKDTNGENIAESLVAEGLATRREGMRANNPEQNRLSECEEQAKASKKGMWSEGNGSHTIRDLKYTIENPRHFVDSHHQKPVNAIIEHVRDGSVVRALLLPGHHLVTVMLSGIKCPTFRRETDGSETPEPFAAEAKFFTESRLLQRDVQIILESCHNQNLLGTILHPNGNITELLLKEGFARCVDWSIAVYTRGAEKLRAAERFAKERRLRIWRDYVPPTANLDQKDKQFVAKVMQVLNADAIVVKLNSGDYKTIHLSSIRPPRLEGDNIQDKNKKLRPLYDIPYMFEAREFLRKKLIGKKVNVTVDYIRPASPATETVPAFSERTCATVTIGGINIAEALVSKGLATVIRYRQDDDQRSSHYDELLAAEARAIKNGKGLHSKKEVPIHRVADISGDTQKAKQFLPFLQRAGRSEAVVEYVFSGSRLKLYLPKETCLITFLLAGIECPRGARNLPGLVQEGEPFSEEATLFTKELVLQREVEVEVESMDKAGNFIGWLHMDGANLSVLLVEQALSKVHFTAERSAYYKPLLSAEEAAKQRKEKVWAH", "test": "EMSA; SND1 alone; Beyotime GS009 chemiluminescent EMSA kit binding buffer (composition, salt and pH not given), 20 fmol biotin probe, 0.1 ug protein, 10 min at room temperature", "details": "protein: recombinant; label: biotin; blunt"}}}
{"binder": "B1", "values": [{"measurement": "binding result", "setting": "SRF (1-266)", "result": "binds"}, {"measurement": "binding result", "setting": "SND1 (1-660)", "result": "no binding"}]}
